The record followed here is paper PMC4738354, “Volta phase plate cryo-EM of the small protein complex Prx3” (Nature Communications, 2016).

The data set concerns the molecule itself. The experiment in a line: cryo-EM structure; single-particle cryo-EM with Volta phase plate, frozen-hydrated hPrx3 in thick ice; two data sets (7.3 Å and 4.4 Å reconstructions); D6 symmetry imposed in 3D classification of the first data set.

B1: human peroxiredoxin-3 (natural protein, UniProt P30048 62-256, looked up)
chain: APAVTQHAPYFKGTAVVNGEFKDLSLDDFKGKYLVLFFYPLDFTFVCPTEIVAFSDKANEFHDVNCEVVAVSVDSHFSHLAWINTPRKNGGLGHMNIALLSDLTKQISRDYGVLLEGSGLALRGLFIIDPNGVIKHLSVNDLPVGRSVEETLRLVKAFQYVETHGEVCPANWTPDSPTIKPSPAASKEYFQKVNQ
notes: peroxiredoxin-3 (Prx3), human mitochondrial isoform; also called hPrx3; Prx3; source: Rosetta (DE3) cells (Novagen), purified (HisTrap, Superdex 200 gel filtration, TEV cleavage of the His-tag); copies: 12
Regarding B1, the “stoichiometry N” value came to 12.
